# System: growth of yeast strains under 51 stress conditions
# Assay: Growth assays in 51 stress conditions (Fig. 1E-F, S2D, S5B)
# Type: cell-based, Saccharomyces cerevisiae
# Design: key to Growth (Fig. S2D) / growth of ABP1 SH3-swapped strains in stress condition: log2 colony size, average of median per strain (growth score)
# Conditions: FigS2D
# How it was run: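 Yeast WT, SH3-deleted, KO, SH3-swapped and SH3-shuffled strains pinned in 1536 format, 12 replicates each; pregrown on YPD 2 days at 30 °C, then replicated onto 51 media at 37 °C and imaged every 2 h. Growth score = mean of per-plate median log2 colony size at 74 h.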
molecule,measurement,setting,value
"SDC25 (protein, UniProt P0CF34 1-1048, looked up) Putative truncated guanine …: MPITSSPDLFYLNDCDVVYWYDLTRLVCHYVNLTERDLLANEREKFLTSLDLLTAQITYVYMLFRNLRLVEDSFKKTLKKLIYTLSRFSINANIWFHSTLFEEREAIASQKDPERRSPLLQSILGTFQKFHFLLRLLHFLSNPNELTILPQLTPRFFKDSFNTISWNNPFLRKRLNQHMSHDLPRQMIKAVAGASGIVAENIDEIPASKQGTSCSSETSHHSPSAPFQRRRRGTIFSNVSGSSDESDTIWSKRKKPYPLNEETLSLVRARKKQLDGKLKQMIKSANEYLSNTANFSKMLNFEMNFKTYEEVSGTIPIIDILENLDLTIFLNLRELGDENRVFDEDVAIDDEDEEFLKHSLSSLSYILSDYFNMKQYFHDVVVKFIIVAQHLTLEDPFVFSPMQNDLPTGYYEPMKPSSLNLDNAKDKKNGSQNTDIQEEEDEYEPDPDSLILFHNLINQDSDFNDLKFFNLAHVFKKSCDDYFDVLKLAIEFVNQLILERENLLNYAARMMKNNITELLLRGEEGYGSYDGGETAEKSDTNAVYADSDTKDNDEWRDSQVKLPRYLQREYDSELIWGSNNRIKGGSKHALISYLTDNEKKDLFFDITFLITFRSIFTTTEFLSYLISQYNLDPPEDLCFEEYNEWVTKKLIPVKCRVVEIMTTFFKQYWFLGYDEPDLATLNLDYFAQVAIKENITGSVELLKEVNQKFKHGNIQEATAPMKTLDQQICQDHYSGTLYSTTESILAVDPVLFATQLTILEHEIYCEITIFDCLQKIWKNKYTKSYGASPGLNEFISFANKLTNFISYSVVKEADKSKRAKLLSHFIFIAEYCRKFNNFSSMTAIISALYSSPIYRLEKTWQAVIPQTRDLLQSLNKLMDPKKNFINYRNELKSLHSAPCVPFFGVYLSDLTFTDSGNPDYLVLEHGLKGVHDEKKYINFNKRSRLVDILQEIIYFKKTHYDFTKDRTVIECISNSLENIPHIEKQYQLSLIIEPKPRKKVVPNSNSNNKSQEKSRDDQTDEGKTSTKKDRFPKFQLHKTKKKAPKVSK",growth of ABP1 SH3-swapped strains in stress condition,Bathophenanthroline.0.1uM,10.8364
same,growth of ABP1 SH3-swapped strains in stress condition,Bathophenanthroline.10uM,10.6904
same,growth of ABP1 SH3-swapped strains in stress condition,Bathophenanthroline.1uM,10.7994
same,growth of ABP1 SH3-swapped strains in stress condition,CaCl2.100mM,10.8248
same,growth of ABP1 SH3-swapped strains in stress condition,CaCl2.250mM,10.7599
same,growth of ABP1 SH3-swapped strains in stress condition,CaCl2.500mM,10.2626
same,growth of ABP1 SH3-swapped strains in stress condition,Caffein.10mM,10.0769
same,growth of ABP1 SH3-swapped strains in stress condition,Caffein.2mM,11.0485
same,growth of ABP1 SH3-swapped strains in stress condition,CdCl2.100uM,9.5
same,growth of ABP1 SH3-swapped strains in stress condition,CdCl2.10uM,10.8639
same,growth of ABP1 SH3-swapped strains in stress condition,CdCl2.50uM,9.958
same,growth of ABP1 SH3-swapped strains in stress condition,CuSO4.1mM,10.5113
same,growth of ABP1 SH3-swapped strains in stress condition,CuSO4.5mM,8.27
same,growth of ABP1 SH3-swapped strains in stress condition,Cycloheximide.0.05.uM,11.0819
same,growth of ABP1 SH3-swapped strains in stress condition,Cycloheximide.0.2.uM,10.7047
same,growth of ABP1 SH3-swapped strains in stress condition,Cycloheximide.0.5.uM,10.178
same,growth of ABP1 SH3-swapped strains in stress condition,DMSO.2.,11.0639
same,growth of ABP1 SH3-swapped strains in stress condition,DMSO.6.,9.8939
same,growth of ABP1 SH3-swapped strains in stress condition,DMSO.8.,9.304
same,growth of ABP1 SH3-swapped strains in stress condition,Ethanol.2.,10.7995
same,growth of ABP1 SH3-swapped strains in stress condition,Ethanol.6.,10.2862
same,growth of ABP1 SH3-swapped strains in stress condition,Ethanol.8.,10.1201
same,growth of ABP1 SH3-swapped strains in stress condition,Galactose.2.,10.8278
same,growth of ABP1 SH3-swapped strains in stress condition,Glycerol.2.,9.649
same,growth of ABP1 SH3-swapped strains in stress condition,Hydroxyurea.25mM,10.7663
same,growth of ABP1 SH3-swapped strains in stress condition,Hygromycin.190uM,10.9932
same,growth of ABP1 SH3-swapped strains in stress condition,Hygromycin.19uM,11.0621
same,growth of ABP1 SH3-swapped strains in stress condition,Hygromycin.95uM,11.0036
same,growth of ABP1 SH3-swapped strains in stress condition,MMS.0.004.,10.9622
same,growth of ABP1 SH3-swapped strains in stress condition,MMS.0.02.,10.7008
same,growth of ABP1 SH3-swapped strains in stress condition,MMS.0.04.,9.99
same,growth of ABP1 SH3-swapped strains in stress condition,Menadione.100uM,10.5981
same,growth of ABP1 SH3-swapped strains in stress condition,Menadione.200uM,10.4339
same,growth of ABP1 SH3-swapped strains in stress condition,Menadione.50uM,10.8229
same,growth of ABP1 SH3-swapped strains in stress condition,NaCl.0.25M,10.7913
same,growth of ABP1 SH3-swapped strains in stress condition,NaCl.1M,9.689
same,growth of ABP1 SH3-swapped strains in stress condition,Nitroquinoline.10uM,10.6447
same,growth of ABP1 SH3-swapped strains in stress condition,Nitroquinoline.50uM,10.5332
same,growth of ABP1 SH3-swapped strains in stress condition,Nystatin.0.01uM,11.0104
same,growth of ABP1 SH3-swapped strains in stress condition,Nystatin.0.1uM,10.9861
same,growth of ABP1 SH3-swapped strains in stress condition,Raffinose.2.,11.0244
same,growth of ABP1 SH3-swapped strains in stress condition,Rapamycin.10nM,9.868
same,growth of ABP1 SH3-swapped strains in stress condition,Rapamycin.50nM,9.322
same,growth of ABP1 SH3-swapped strains in stress condition,SC.pH3,10.4118
same,growth of ABP1 SH3-swapped strains in stress condition,SC.pH6,11.0555
same,growth of ABP1 SH3-swapped strains in stress condition,SDS.0.01.,10.9877
same,growth of ABP1 SH3-swapped strains in stress condition,SDS.0.02.,11.0022
same,growth of ABP1 SH3-swapped strains in stress condition,SDS.0.05.,10.9318
same,growth of ABP1 SH3-swapped strains in stress condition,Sorbitol.10mM,10.9817
same,growth of ABP1 SH3-swapped strains in stress condition,Sorbitol.1mM,11.0284
same,growth of ABP1 SH3-swapped strains in stress condition,Sorbitol.5mM,10.9056
